Experimental data taken from US11939397B2, “ENTPD2 antibodies, combination therapies, and methods of using the antibodies and combination therapies” (Novartis AG, priority 2018, dated 2024).

Columns and labels:
ENTPD2 = molecular target: T1, ENTPD2 (Homo sapiens, UniProt Q9Y5L3); experiment: FACS binding to human ENTPD2 expressing cells (NIH/3T3); set-up: expressed in transfected cells
T1 sequence (Q9Y5L3 1-495): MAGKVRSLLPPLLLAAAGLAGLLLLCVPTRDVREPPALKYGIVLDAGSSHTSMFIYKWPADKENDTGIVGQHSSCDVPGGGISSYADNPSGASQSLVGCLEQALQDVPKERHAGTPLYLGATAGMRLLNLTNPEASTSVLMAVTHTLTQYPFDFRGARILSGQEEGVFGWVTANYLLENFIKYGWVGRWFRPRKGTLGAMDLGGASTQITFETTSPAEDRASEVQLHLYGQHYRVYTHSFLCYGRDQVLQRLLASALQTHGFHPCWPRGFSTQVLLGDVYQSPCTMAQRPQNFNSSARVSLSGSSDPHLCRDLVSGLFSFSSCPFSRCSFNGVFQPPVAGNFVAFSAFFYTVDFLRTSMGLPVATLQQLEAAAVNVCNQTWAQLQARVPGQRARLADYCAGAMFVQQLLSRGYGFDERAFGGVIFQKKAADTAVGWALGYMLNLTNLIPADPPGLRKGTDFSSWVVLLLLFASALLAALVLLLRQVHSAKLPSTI
Text: Ten days after fusion, hybridoma plates were screened for the presence of ENTPD2-specific antibodies using flow cytometry to confirm specific binding of candidate antibodies to cell surface-expressed human ENTPD2 using three cell lines: parental NIH/3T3 cells, NIH/3T3 cells stably overexpressing human ENTPD2, and RKO cells (ATCC®), which expresses endogenous human ENTPD2. Cells were rinsed thoroughly with PBS, treated with Accutase (Millipore #SCR005) to lift them from the growth plates, and resuspended in cold PBS. Cells were biotinylated and labeled with a fluorescent dye according to manufacturer's instructions (FluoReporter™ Cell-Surface Biotinylation Kit, Thermo Fisher Scientific Cat #F-20650; PE-Cy7 Steptavidin, ThermoFisher Scientific Cat #SA1012). Cells were resuspended at approximately 1×10^6 cells/ml in FACS buffer (PBS with 2% FBS+0.1% NaN3). In a 384-well plate, 20 μL of hybridoma supernatant was pre-seeded and 20 μL of cell suspension was added. […] Geometric mean fluorescence intensity was calculated on live single cells using FlowJo™ software.
FACS screening: Specific binding of candidate antibodies to endogenously expressed ENTPD2 was assessed by flow cytometry. […] Geometric mean fluorescence intensity was calculated on live single cells using FlowJo software.

cyno ENTPD2 = experiment: FACS binding to cyno ENTPD2 expressing cells; set-up: species or system cynomolgus monkey
Description: FACS screening: Specific binding of candidate antibodies to endogenously expressed ENTPD2 was assessed by flow cytometry. Cells were rinsed thoroughly with 1×PBS and treated with Accutase (Millipore #SCR005) to lift from growth plates and resuspended at approximately 1×10^5 cells/90 μL in 1×FACS buffer (2% FBS+0.1% NaN3 in PBS). In a 96-well U-bottom plate, 10 μL of 10× antibody solution in FACS buffer was pre-seeded and 90 μL of cell suspension was added. Cell were incubated for 30 minutes at 4° C., washed 1× with cold PBS and resuspended in 100 μL of 1:500 secondary antibody 1×FACS buffer (Allophycocyanin conjugated F(ab′)2 goat anti-human IgG, Fcγ specific; Jackson Immunoresearch, Cat #109-136-098). After additional incubation for 15 min at 4° C., cells were washed twice with PBS and resuspended in 100 μL of 1×FACS buffer with 4 μg/mL propidium iodide (Life Technologies, Cat #P3566). Geometric mean fluorescence intensity was calculated on live single cells using FlowJo software.

cyno ENTPD2, sequence (as listed by the source): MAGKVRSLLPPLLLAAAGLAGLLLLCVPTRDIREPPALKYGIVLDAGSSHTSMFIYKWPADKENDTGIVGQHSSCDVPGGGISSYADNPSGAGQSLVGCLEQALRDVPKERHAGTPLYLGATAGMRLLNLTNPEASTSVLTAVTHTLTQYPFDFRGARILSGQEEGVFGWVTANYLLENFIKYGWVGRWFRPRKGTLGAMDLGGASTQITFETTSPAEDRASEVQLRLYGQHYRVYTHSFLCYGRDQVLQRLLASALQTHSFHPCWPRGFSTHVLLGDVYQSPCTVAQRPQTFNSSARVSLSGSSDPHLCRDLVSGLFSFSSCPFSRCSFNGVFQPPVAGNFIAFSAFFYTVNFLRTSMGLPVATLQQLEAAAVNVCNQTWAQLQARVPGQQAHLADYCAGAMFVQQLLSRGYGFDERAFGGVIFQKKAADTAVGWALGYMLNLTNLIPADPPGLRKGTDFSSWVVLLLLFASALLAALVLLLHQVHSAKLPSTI

B1: mAb13: anti-mouse ENTPD2 monoclonal antibody, VH SEQ ID NO: 191, VL SEQ ID NO: 202 (antibody, V domains shown)
VH: QVQLVQSGAELKQPGQSVKISCKASGYTFTHYGMNWVKQAPGQGLKWMGWINTDTGNPTYADDFKGRFVFSLDTSVSTAYLQISNLKNEDTATYYCVRYGTLYSGYGFFFDSWGQGTLVTVSS
VL: DIMMTQSPSSLSVSAGEKATITCKSSQSLFNSNTNKNYLNWYLQKPGQSPKLLFYYASTRHTGVPDRFIGSGSGTDFTLTITSVQDEDLADYYCQQWYSYPWTFGPGTKLEIK
binding to human ENTPD2 (ENTPD2): no binding | binding to cyno ENTPD2 (cyno ENTPD2): no binding
